Source: article PMC11937023

Molecular target: endogenous CD64 (FcγRI) on primary human myeloid cells (human (endogenous in primary human monocytes)) (UniProt P12314)
UniProt P12314, sequence (P12314 16-374): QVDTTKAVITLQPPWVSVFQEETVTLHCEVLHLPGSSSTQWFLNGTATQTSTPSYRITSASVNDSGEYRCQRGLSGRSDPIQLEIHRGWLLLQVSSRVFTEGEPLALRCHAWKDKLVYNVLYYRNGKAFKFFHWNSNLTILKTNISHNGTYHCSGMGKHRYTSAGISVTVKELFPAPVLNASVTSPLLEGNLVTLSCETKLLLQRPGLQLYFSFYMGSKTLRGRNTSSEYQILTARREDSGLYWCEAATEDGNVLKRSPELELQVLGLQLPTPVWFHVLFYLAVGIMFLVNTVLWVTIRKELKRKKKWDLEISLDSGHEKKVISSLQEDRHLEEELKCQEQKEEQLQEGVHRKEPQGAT

Substance	IC50 for inhibiting IL-23 signaling (luciferase in IL-23 reporter cells) in co-culture with R848-stimulated, IFNγ-primed CD64+ THP-1 cells, 16 hours [pM]
guselkumab (antibody)	92
guselkumab modified to contain LALA mutations in the Fc domain (antibody)	477
